The source of these data is patent US20060216339.

Data set [1] deals with purified recombinant Elk1 protein (Elk1-GST fusion protein) [GST: P08515].
Data set [2] relates to recombinant mammalian ERK2 (MAPK p42 protein, bacterial recombinant, already containing phospho-tyrosine-185).

Chain of purified recombinant Elk1 protein (Elk1-GST fusion protein) [GST: P08515] (P08515 whole entry, looked up, the tested form may be a part): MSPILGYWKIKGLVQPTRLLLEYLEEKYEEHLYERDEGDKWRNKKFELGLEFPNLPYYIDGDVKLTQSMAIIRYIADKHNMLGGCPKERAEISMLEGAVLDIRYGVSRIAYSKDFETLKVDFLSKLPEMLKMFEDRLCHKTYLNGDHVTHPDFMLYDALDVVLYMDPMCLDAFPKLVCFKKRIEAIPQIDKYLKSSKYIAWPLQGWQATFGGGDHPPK

As to “ERK2 activated by apPKG (doubly phosphorylated, T183 and Y185)”, the “phosphorylation of Elk1 at Ser^383 (Western blot with Ab^pElk1)” value in data set [1] was “ERK2 activity was measured by the phosphorylation of Elk1 at Ser^383”. Consider “MEK1 (MAP kinase kinase 1)-GST fusion protein, activated by the catalytic subunit of MEKK1”, for which the “ERK2 activity (production of phospho-Elk1)” value in data set [2] is “MEK1, which produces the maximally activated kinase”. For “active apMAPK (phospho-apMAPK, dually phosphorylated at the T-E-Y site)”, the “phosphorylation of Elk1 at Ser^383 (Western blot with Ab^pElk1)” value in data set [1] is on record as “the apPKG-activated ap-MAPK phosphorylated its physiological substrate, Elk1, at the appropriate Ser^383”.
